Test results reported in the RNAGym collection of RNA variant scans (doi:10.1021/acssynbio.7b00057).

B1: Pistol ribozyme (parent)
chain: GGGUCGUUGUUCCAUAAUCGCGUGGAUAUGGCACGCAAGUUUCUACCGGGCACCGUAAAUGUCCGACUGGAGCCGUUCGGGCGGCUAUAAACAGACCUCAGGCCCGAAGCGUGGCGGCACCUGCCGCCGGUGGUAAAAAAGAUCGGAAGAGCACACGUCU

Variants of: B1
Assay: aptazyme ON/OFF ratio, guanine; higher = stronger switching; co-transcriptional cleavage with and without guanine

Row | Variant | aptazyme ON/OFF ratio
1 | GGGUCGAGCCGCUAUAAUCGCGUGGAUAUGGCACGCAAGUUUCUACCGGGCACCGUAAAUGUCCGACUGGAGCCGUUCGGGCGGCUAUAAACAGACCUCAGGCCCGAAGCGUGGCGGCACCUGCCGCCGGUGGUAAAAAAGAUCGGAAGAGCACACGUCU [U7A U8G G9C U10C U11G C13U] | 1.23
2 | GGGUCGGCGUCCGAUAAUCGCGUGGAUAUGGCACGCAAGUUUCUACCGGGCACCGUAAAUGUCCGACUGGAGCCGUUCGGGCGGCUAUAAACAGACCUCAGGCCCGAAGCGUGGCGGCACCUGCCGCCGGUGGUAAAAAAGAUCGGAAGAGCACACGUCU [U7G U8C U11C C13G] | 1.07
3 | GGGUCGUAUCUUUAUAAUCGCGUGGAUAUGGCACGCAAGUUUCUACCGGGCACCGUAAAUGUCCGACUGGAGCCGUUCGGGCGGCUAUAAACAGACCUCAGGCCCGAAGCGUGGCGGCACCUGCCGCCGGUGGUAAAAAAGAUCGGAAGAGCACACGUCU [U8A G9U U10C C12U C13U] | 1.18
4 | GGGUCGCAUGAGAAUAAUCGCGUGGAUAUGGCACGCAAGUUUCUACCGGGCACCGUAAAUGUCCGACUGGAGCCGUUCGGGCGGCUAUAAACAGACCUCAGGCCCGAAGCGUGGCGGCACCUGCCGCCGGUGGUAAAAAAGAUCGGAAGAGCACACGUCU [U7C U8A G9U U10G U11A C12G C13A] | 1.21
5 | GGGUCGGCUUACGAUAAUCGCGUGGAUAUGGCACGCAAGUUUCUACCGGGCACCGUAAAUGUCCGACUGGAGCCGUUCGGGCGGCUAUAAACAGACCUCAGGCCCGAAGCGUGGCGGCACCUGCCGCCGGUGGUAAAAAAGAUCGGAAGAGCACACGUCU [U7G U8C G9U U11A C13G] | 1.02
6 | GGGUCGUAGUAUCAUAAUCGCGUGGAUAUGGCACGCAAGUUUCUACCGGGCACCGUAAAUGUCCGACUGGAGCCGUUCGGGCGGCUAUAAACAGACCUCAGGCCCGAAGCGUGGCGGCACCUGCCGCCGGUGGUAAAAAAGAUCGGAAGAGCACACGUCU [U8A U11A C12U] | 1.19
7 | GGGUCGAUGGCUAAUAAUCGCGUGGAUAUGGCACGCAAGUUUCUACCGGGCACCGUAAAUGUCCGACUGGAGCCGUUCGGGCGGCUAUAAACAGACCUCAGGCCCGAAGCGUGGCGGCACCUGCCGCCGGUGGUAAAAAAGAUCGGAAGAGCACACGUCU [U7A U10G U11C C12U C13A] | 1.3
8 | GGGUCGCUGAGGCAUAAUCGCGUGGAUAUGGCACGCAAGUUUCUACCGGGCACCGUAAAUGUCCGACUGGAGCCGUUCGGGCGGCUAUAAACAGACCUCAGGCCCGAAGCGUGGCGGCACCUGCCGCCGGUGGUAAAAAAGAUCGGAAGAGCACACGUCU [U7C U10A U11G C12G] | 1.18
9 | GGGUCGGGGCGAAAUAAUCGCGUGGAUAUGGCACGCAAGUUUCUACCGGGCACCGUAAAUGUCCGACUGGAGCCGUUCGGGCGGCUAUAAACAGACCUCAGGCCCGAAGCGUGGCGGCACCUGCCGCCGGUGGUAAAAAAGAUCGGAAGAGCACACGUCU [U7G U8G U10C U11G C12A C13A] | 1.15
10 | GGGUCGUGGCGACAUAAUCGCGUGGAUAUGGCACGCAAGUUUCUACCGGGCACCGUAAAUGUCCGACUGGAGCCGUUCGGGCGGCUAUAAACAGACCUCAGGCCCGAAGCGUGGCGGCACCUGCCGCCGGUGGUAAAAAAGAUCGGAAGAGCACACGUCU [U8G U10C U11G C12A] | 1.35
11 | GGGUCGCAAGCGAAUAAUCGCGUGGAUAUGGCACGCAAGUUUCUACCGGGCACCGUAAAUGUCCGACUGGAGCCGUUCGGGCGGCUAUAAACAGACCUCAGGCCCGAAGCGUGGCGGCACCUGCCGCCGGUGGUAAAAAAGAUCGGAAGAGCACACGUCU [U7C U8A G9A U10G U11C C12G C13A] | 1.13
12 | GGGUCGGAGGCUAAUAAUCGCGUGGAUAUGGCACGCAAGUUUCUACCGGGCACCGUAAAUGUCCGACUGGAGCCGUUCGGGCGGCUAUAAACAGACCUCAGGCCCGAAGCGUGGCGGCACCUGCCGCCGGUGGUAAAAAAGAUCGGAAGAGCACACGUCU [U7G U8A U10G U11C C12U C13A] | 1.46
13 | GGGUCGGAACUAUAUAAUCGCGUGGAUAUGGCACGCAAGUUUCUACCGGGCACCGUAAAUGUCCGACUGGAGCCGUUCGGGCGGCUAUAAACAGACCUCAGGCCCGAAGCGUGGCGGCACCUGCCGCCGGUGGUAAAAAAGAUCGGAAGAGCACACGUCU [U7G U8A G9A U10C C12A C13U] | 1.08
14 | GGGUCGACUCUGUAUAAUCGCGUGGAUAUGGCACGCAAGUUUCUACCGGGCACCGUAAAUGUCCGACUGGAGCCGUUCGGGCGGCUAUAAACAGACCUCAGGCCCGAAGCGUGGCGGCACCUGCCGCCGGUGGUAAAAAAGAUCGGAAGAGCACACGUCU [U7A U8C G9U U10C C12G C13U] | 1.51
15 | GGGUCGUAGAUGUAUAAUCGCGUGGAUAUGGCACGCAAGUUUCUACCGGGCACCGUAAAUGUCCGACUGGAGCCGUUCGGGCGGCUAUAAACAGACCUCAGGCCCGAAGCGUGGCGGCACCUGCCGCCGGUGGUAAAAAAGAUCGGAAGAGCACACGUCU [U8A U10A C12G C13U] | 1.37
16 | GGGUCGCGAGACGAUAAUCGCGUGGAUAUGGCACGCAAGUUUCUACCGGGCACCGUAAAUGUCCGACUGGAGCCGUUCGGGCGGCUAUAAACAGACCUCAGGCCCGAAGCGUGGCGGCACCUGCCGCCGGUGGUAAAAAAGAUCGGAAGAGCACACGUCU [U7C U8G G9A U10G U11A C13G] | 1.1
17 | GGGUCGUGCAUAAAUAAUCGCGUGGAUAUGGCACGCAAGUUUCUACCGGGCACCGUAAAUGUCCGACUGGAGCCGUUCGGGCGGCUAUAAACAGACCUCAGGCCCGAAGCGUGGCGGCACCUGCCGCCGGUGGUAAAAAAGAUCGGAAGAGCACACGUCU [U8G G9C U10A C12A C13A] | 1.13
18 | GGGUCGCUACGCCAUAAUCGCGUGGAUAUGGCACGCAAGUUUCUACCGGGCACCGUAAAUGUCCGACUGGAGCCGUUCGGGCGGCUAUAAACAGACCUCAGGCCCGAAGCGUGGCGGCACCUGCCGCCGGUGGUAAAAAAGAUCGGAAGAGCACACGUCU [U7C G9A U10C U11G] | 1.42

Row | Variant | aptazyme ON/OFF ratio
19 | GGGUCGGUCCCGGAUAAUCGCGUGGAUAUGGCACGCAAGUUUCUACCGGGCACCGUAAAUGUCCGACUGGAGCCGUUCGGGCGGCUAUAAACAGACCUCAGGCCCGAAGCGUGGCGGCACCUGCCGCCGGUGGUAAAAAAGAUCGGAAGAGCACACGUCU [U7G G9C U10C U11C C12G C13G] | 1.05
20 | GGGUCGACUUGUAAUAAUCGCGUGGAUAUGGCACGCAAGUUUCUACCGGGCACCGUAAAUGUCCGACUGGAGCCGUUCGGGCGGCUAUAAACAGACCUCAGGCCCGAAGCGUGGCGGCACCUGCCGCCGGUGGUAAAAAAGAUCGGAAGAGCACACGUCU [U7A U8C G9U U11G C12U C13A] | 1.22
21 | GGGUCGCGGAAGCAUAAUCGCGUGGAUAUGGCACGCAAGUUUCUACCGGGCACCGUAAAUGUCCGACUGGAGCCGUUCGGGCGGCUAUAAACAGACCUCAGGCCCGAAGCGUGGCGGCACCUGCCGCCGGUGGUAAAAAAGAUCGGAAGAGCACACGUCU [U7C U8G U10A U11A C12G] | 1.08
22 | GGGUCGGCCGUCAAUAAUCGCGUGGAUAUGGCACGCAAGUUUCUACCGGGCACCGUAAAUGUCCGACUGGAGCCGUUCGGGCGGCUAUAAACAGACCUCAGGCCCGAAGCGUGGCGGCACCUGCCGCCGGUGGUAAAAAAGAUCGGAAGAGCACACGUCU [U7G U8C G9C U10G C13A] | 1.3
23 | GGGUCGGCUUUUAAUAAUCGCGUGGAUAUGGCACGCAAGUUUCUACCGGGCACCGUAAAUGUCCGACUGGAGCCGUUCGGGCGGCUAUAAACAGACCUCAGGCCCGAAGCGUGGCGGCACCUGCCGCCGGUGGUAAAAAAGAUCGGAAGAGCACACGUCU [U7G U8C G9U C12U C13A] | 1.18
24 | GGGUCGCGGACGGAUAAUCGCGUGGAUAUGGCACGCAAGUUUCUACCGGGCACCGUAAAUGUCCGACUGGAGCCGUUCGGGCGGCUAUAAACAGACCUCAGGCCCGAAGCGUGGCGGCACCUGCCGCCGGUGGUAAAAAAGAUCGGAAGAGCACACGUCU [U7C U8G U10A U11C C12G C13G] | 1.22
25 | GGGUCGCAUUGCUAUAAUCGCGUGGAUAUGGCACGCAAGUUUCUACCGGGCACCGUAAAUGUCCGACUGGAGCCGUUCGGGCGGCUAUAAACAGACCUCAGGCCCGAAGCGUGGCGGCACCUGCCGCCGGUGGUAAAAAAGAUCGGAAGAGCACACGUCU [U7C U8A G9U U11G C13U] | 1.17
26 | GGGUCGGUGGUGUAUAAUCGCGUGGAUAUGGCACGCAAGUUUCUACCGGGCACCGUAAAUGUCCGACUGGAGCCGUUCGGGCGGCUAUAAACAGACCUCAGGCCCGAAGCGUGGCGGCACCUGCCGCCGGUGGUAAAAAAGAUCGGAAGAGCACACGUCU [U7G U10G C12G C13U] | 1.12
27 | GGGUCGCUCGCCUAUAAUCGCGUGGAUAUGGCACGCAAGUUUCUACCGGGCACCGUAAAUGUCCGACUGGAGCCGUUCGGGCGGCUAUAAACAGACCUCAGGCCCGAAGCGUGGCGGCACCUGCCGCCGGUGGUAAAAAAGAUCGGAAGAGCACACGUCU [U7C G9C U10G U11C C13U] | 1.06
28 | GGGUCGUCUACGAAUAAUCGCGUGGAUAUGGCACGCAAGUUUCUACCGGGCACCGUAAAUGUCCGACUGGAGCCGUUCGGGCGGCUAUAAACAGACCUCAGGCCCGAAGCGUGGCGGCACCUGCCGCCGGUGGUAAAAAAGAUCGGAAGAGCACACGUCU [U8C G9U U10A U11C C12G C13A] | 1.25
29 | GGGUCGCUACACUAUAAUCGCGUGGAUAUGGCACGCAAGUUUCUACCGGGCACCGUAAAUGUCCGACUGGAGCCGUUCGGGCGGCUAUAAACAGACCUCAGGCCCGAAGCGUGGCGGCACCUGCCGCCGGUGGUAAAAAAGAUCGGAAGAGCACACGUCU [U7C G9A U10C U11A C13U] | 1.33
30 | GGGUCGUUCUACAAUAAUCGCGUGGAUAUGGCACGCAAGUUUCUACCGGGCACCGUAAAUGUCCGACUGGAGCCGUUCGGGCGGCUAUAAACAGACCUCAGGCCCGAAGCGUGGCGGCACCUGCCGCCGGUGGUAAAAAAGAUCGGAAGAGCACACGUCU [G9C U11A C13A] | 1.19
31 | GGGUCGUCCGUGGAUAAUCGCGUGGAUAUGGCACGCAAGUUUCUACCGGGCACCGUAAAUGUCCGACUGGAGCCGUUCGGGCGGCUAUAAACAGACCUCAGGCCCGAAGCGUGGCGGCACCUGCCGCCGGUGGUAAAAAAGAUCGGAAGAGCACACGUCU [U8C G9C U10G C12G C13G] | 1.09
32 | GGGUCGUGUCUUCAUAAUCGCGUGGAUAUGGCACGCAAGUUUCUACCGGGCACCGUAAAUGUCCGACUGGAGCCGUUCGGGCGGCUAUAAACAGACCUCAGGCCCGAAGCGUGGCGGCACCUGCCGCCGGUGGUAAAAAAGAUCGGAAGAGCACACGUCU [U8G G9U U10C C12U] | 1.09
33 | GGGUCGGCAGGCAAUAAUCGCGUGGAUAUGGCACGCAAGUUUCUACCGGGCACCGUAAAUGUCCGACUGGAGCCGUUCGGGCGGCUAUAAACAGACCUCAGGCCCGAAGCGUGGCGGCACCUGCCGCCGGUGGUAAAAAAGAUCGGAAGAGCACACGUCU [U7G U8C G9A U10G U11G C13A] | 1.31
34 | GGGUCGUGUGGGCAUAAUCGCGUGGAUAUGGCACGCAAGUUUCUACCGGGCACCGUAAAUGUCCGACUGGAGCCGUUCGGGCGGCUAUAAACAGACCUCAGGCCCGAAGCGUGGCGGCACCUGCCGCCGGUGGUAAAAAAGAUCGGAAGAGCACACGUCU [U8G G9U U10G U11G C12G] | 1.13
35 | GGGUCGUCAUACUAUAAUCGCGUGGAUAUGGCACGCAAGUUUCUACCGGGCACCGUAAAUGUCCGACUGGAGCCGUUCGGGCGGCUAUAAACAGACCUCAGGCCCGAAGCGUGGCGGCACCUGCCGCCGGUGGUAAAAAAGAUCGGAAGAGCACACGUCU [U8C G9A U11A C13U] | 1.22
36 | GGGUCGAUGCUGAAUAAUCGCGUGGAUAUGGCACGCAAGUUUCUACCGGGCACCGUAAAUGUCCGACUGGAGCCGUUCGGGCGGCUAUAAACAGACCUCAGGCCCGAAGCGUGGCGGCACCUGCCGCCGGUGGUAAAAAAGAUCGGAAGAGCACACGUCU [U7A U10C C12G C13A] | 1.29
